Test results reported in PMC9691722.
pKd: −log10 of the molar value.

Target: HCV1406 TCR
Experiment: SPR; steady-state titration; TCR amine coupled to the sensor surface (1000-5000 RU), peptide/HLA-A2 injected at increasing concentrations, 5 μL/min, 25 °C, HBS-EP (10 mM HEPES, 150 mM NaCl, 3 mM EDTA, 0.005% surfactant P20, pH 7.4); 1:1 model; mutants globally fit alongside wild type with a shared RUmax

NS3/HLA-A2 with Arg65 of HLA-A2 mutated to alanine (from UniProt P61769 21-119) (peptide-MHC)
pKd: < 2.82
